These results are taken from publication PMC8948829, “The Escherichia coli Amino Acid Uptake Protein CycA: Regulation of Its Synthesis and Practical Application in L-Isoleucine Production” (Microorganisms, 2022).

The data set concerns the target T1, Crp (CRP, cAMP receptor protein) (Escherichia coli (purified from strain SA500/pHA5)) (UniProt P0ACJ8).
T1 sequence: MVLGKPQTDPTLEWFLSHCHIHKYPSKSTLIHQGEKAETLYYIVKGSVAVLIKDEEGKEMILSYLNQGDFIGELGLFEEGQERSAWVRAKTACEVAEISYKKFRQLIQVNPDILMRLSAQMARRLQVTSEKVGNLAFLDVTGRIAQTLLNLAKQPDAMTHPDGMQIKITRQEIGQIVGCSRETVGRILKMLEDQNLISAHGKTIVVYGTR
Put plainly: EMSA. Conditions: 10 mM Tris-HCl pH 7.5, 1 mM EDTA, 100 mM KCl, 1 mM DTT, BSA (printed 10 g/mL), 5% glycerol, 20 uM cAMP, room temperature 30 min; 6% native PAGE, 1x TAE, 4 C.

As to “CGTTCAGCACCCTGGTGTTTGAAGTCGAACTGCTGGAAATCCTCTAAGCAGCGCATTCTGTTCCCCTCGAACGAGAGGGGAGCAGGCATTCAGCAATAAACCCTTCAGTTTGCCAAACGGCGCTATTTTGTGTTGCAAAGACCCCGTA (double strand) [PcycA fragment 3 (148 bp, no predicted Crp site)]”, the binding entry is “no binding”.
On to “TGTTTAAAGTGAGTGTCATATCACGGTGATAACGCGAAACAGCTCACAAAAATACACGCTTACGGGGTCTTTGCAACACAAAATAGCGCCGTTTGGCAAACTGAAGGGTTTATTGCTGAATGCCTGCTCCCCTCTCGTTCGAGGGGAACAGAATGCGCTGCTTAGAGGATTTCCAGCAGTTCGACTTCAAACACCAGGGTGCTGAACG (double strand) [PcycA fragment 1 (208 bp)]”, for which the binding entry is reported as “binds”.
